In assay [1] the target is T1, S.c. Rad27 (Fen1) flap endonuclease with a 6xHis tag at the C-terminus (S. cerevisiae, UniProt P26793 1-382).
T1 sequence (looked up): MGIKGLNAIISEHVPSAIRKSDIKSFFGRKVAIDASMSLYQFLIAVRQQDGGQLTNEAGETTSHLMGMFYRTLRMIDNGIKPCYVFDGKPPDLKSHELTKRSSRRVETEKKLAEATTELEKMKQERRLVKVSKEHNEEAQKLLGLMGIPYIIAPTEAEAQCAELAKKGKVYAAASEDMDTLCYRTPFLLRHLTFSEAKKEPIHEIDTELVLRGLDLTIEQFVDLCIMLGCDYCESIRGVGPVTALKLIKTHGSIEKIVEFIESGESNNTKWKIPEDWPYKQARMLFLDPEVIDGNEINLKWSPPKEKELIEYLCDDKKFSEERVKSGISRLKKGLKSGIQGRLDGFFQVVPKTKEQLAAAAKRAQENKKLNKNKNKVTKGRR
As to the kind of experiment: mass photometry.

Assay [2] concerns the target T1, S.c. Rad27 (Fen1) flap endonuclease …. As to the kind of experiment: single-molecule colocalisation on DNA.

B1: PCNA (as used in mass photometry; tag and label not stated) (natural protein, S. cerevisiae, UniProt P15873 1-258, looked up)
chain: MLEAKFEEASLFKRIIDGFKDCVQLVNFQCKEDGIIAQAVDDSRVLLVSLEIGVEAFQEYRCDHPVTLGMDLTSLSKILRCGNNTDTLTLIADNTPDSIILLFEDTKKDRIAEYSLKLMDIDADFLKIEELQYDSTLSLPSSEFSKIVRDLSQLSDSINIMITKETIKFVADGDIGSGSVIIKPFVDMEHPETSIKLEMDQPVDLTFGAKYLLDIIKGSSLSDRVGIRLSSEAPALFQFDLKSGFLQFFLAPKFNDEE
On to B1, for which the binding result in assay [1] is “binds”.

B2: LD655-PCNA (S. cerevisiae 3X FLAG-S6-tagged PCNA labeled with LD655) (natural protein, UniProt P15873 1-258, looked up)
chain: MLEAKFEEASLFKRIIDGFKDCVQLVNFQCKEDGIIAQAVDDSRVLLVSLEIGVEAFQEYRCDHPVTLGMDLTSLSKILRCGNNTDTLTLIADNTPDSIILLFEDTKKDRIAEYSLKLMDIDADFLKIEELQYDSTLSLPSSEFSKIVRDLSQLSDSINIMITKETIKFVADGDIGSGSVIIKPFVDMEHPETSIKLEMDQPVDLTFGAKYLLDIIKGSSLSDRVGIRLSSEAPALFQFDLKSGFLQFFLAPKFNDEE
modifications: LD655 (from LD655-CoA, by SFP synthase) on the single serine residue of the S6 tag
Take B2: the binding result in assay [2] is “binds”.

The record behind these values is article PMC12866951 (Cell, 2026).
